Assay results reported in article PMC9122904, “Insights into the client protein release mechanism of the ATP-independent chaperone Spy” (Nature Communications, 2022).

Legend:
Assay in all cases: BLI; Octet RED96; client biotinylated and loaded on streptavidin sensors; Spy or Spy variant in solution at 0.25, 0.5, 1, 1.5 and 2 μM; 40 mM HEPES, 150 mM NaCl, pH 7.5; Kd calculated as koff/kon
Conditions in all cases: both partners purified
Spy D26A = target: T1, Spy D26A (UniProt P77754 24-161, D26A)
T1 construct: source: E. coli BL21 (DE3), purified (Ni-NTA, cation exchange, SEC); not shown: His6, N-terminal, cleaved; SUMO, N-terminal, cleaved
T1 sequence (looked up): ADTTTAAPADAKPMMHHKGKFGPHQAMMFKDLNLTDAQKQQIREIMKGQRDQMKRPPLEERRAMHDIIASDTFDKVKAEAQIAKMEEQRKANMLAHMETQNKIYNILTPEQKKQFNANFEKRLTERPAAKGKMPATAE

Spy_(27-127) = target: T2, Spy_(27-127) (UniProt P77754 50-150)
T2 construct: Spy chaperone, residues 27-127; source: E. coli BL21 (DE3), purified (Ni-NTA, cation exchange, SEC); not shown: His6, N-terminal, cleaved; SUMO, N-terminal, cleaved
T2 sequence (looked up): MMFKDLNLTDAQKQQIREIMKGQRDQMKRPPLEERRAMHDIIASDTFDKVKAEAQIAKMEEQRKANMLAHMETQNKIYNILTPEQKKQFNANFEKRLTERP
Procedure, shortened: (§1)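 Client proteins were biotinylated with EZ-link NHS-biotin at a 1:1 molar ratio, loaded onto streptavidin sensors, and measured by biolayer interferometry on an Octet RED96. The loaded sensors were dipped into 40 mM HEPES, 150 mM NaCl, pH 7.5 holding the analyte protein at 0.25, 0.5, 1, 1.5 or 2 μM, then moved to buffer without it. Fitting the wavelength-shift association and dissociation curves in SigmaPlot 12.0 gave the observed association rate and koff, kon was taken from the observed rate plotted against analyte concentration, and Kd was calculated as koff/kon.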

Spy_(27-124) = target: T3, Spy_(27-124) (UniProt P77754 50-147)
T3 construct: source: E. coli BL21 (DE3), purified (Ni-NTA, cation exchange, SEC); not shown: His6, N-terminal, cleaved; SUMO, N-terminal, cleaved
T3 sequence (looked up): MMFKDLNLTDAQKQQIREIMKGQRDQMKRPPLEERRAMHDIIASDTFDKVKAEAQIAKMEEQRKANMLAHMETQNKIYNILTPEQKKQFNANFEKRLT
Procedure, shortened: as §1

Spy_(29-130) = target: T4, Spy_(29-130) (UniProt P77754 52-153)
T4 construct: Spy chaperone, residues 29-130; source: E. coli BL21 (DE3), purified (Ni-NTA, cation exchange, SEC); not shown: His6, N-terminal, cleaved; SUMO, N-terminal, cleaved
T4 sequence (looked up): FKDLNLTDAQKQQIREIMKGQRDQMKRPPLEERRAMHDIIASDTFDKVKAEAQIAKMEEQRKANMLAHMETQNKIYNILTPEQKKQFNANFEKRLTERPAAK
Procedure, shortened: as §1

Spy_(29-127) = target: T5, Spy_(29-127) (UniProt P77754 52-150)
T5 construct: Spy chaperone, residues 29-127; source: E. coli BL21 (DE3), purified (Ni-NTA, cation exchange, SEC); not shown: His6, N-terminal, cleaved; SUMO, N-terminal, cleaved
T5 sequence (looked up): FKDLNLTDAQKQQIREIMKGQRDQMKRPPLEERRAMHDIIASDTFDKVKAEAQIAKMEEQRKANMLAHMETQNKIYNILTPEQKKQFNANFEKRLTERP
Procedure, shortened: as §1

Spy_(29-124) = target: T6, Spy_(29-124) (UniProt P77754 52-147)
T6 construct: also called termini-free Spy; source: E. coli BL21 (DE3), purified (Ni-NTA, cation exchange, SEC); not shown: His6, N-terminal, cleaved; SUMO, N-terminal, cleaved
T6 sequence (looked up): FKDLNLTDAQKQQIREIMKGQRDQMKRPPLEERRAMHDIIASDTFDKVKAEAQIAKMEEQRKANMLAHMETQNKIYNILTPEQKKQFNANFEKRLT
Procedure, shortened: as §1

Spy_(21-127) = target: T7, Spy_(21-127) (UniProt P77754 44-150)
T7 construct: Spy chaperone, residues 21-127; source: E. coli BL21 (DE3), purified (Ni-NTA, cation exchange, SEC); not shown: His6, N-terminal, cleaved; SUMO, N-terminal, cleaved
T7 sequence (looked up): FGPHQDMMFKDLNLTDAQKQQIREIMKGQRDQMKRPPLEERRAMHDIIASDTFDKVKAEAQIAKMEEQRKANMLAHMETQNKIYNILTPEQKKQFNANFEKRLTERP
Procedure, shortened: as §1

Spy_(24-124) = target: T8, Spy_(24-124) (UniProt P77754 47-147)
T8 construct: source: E. coli BL21 (DE3), purified (Ni-NTA, cation exchange, SEC); not shown: His6, N-terminal, cleaved; SUMO, N-terminal, cleaved
T8 sequence (looked up): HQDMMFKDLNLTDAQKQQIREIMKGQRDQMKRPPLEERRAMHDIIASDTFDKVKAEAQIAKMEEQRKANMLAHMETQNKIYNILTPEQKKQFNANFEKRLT
Procedure, shortened: as §1

- kon (Spy D26A): 322000 M⁻¹ s⁻¹
- koff (Spy_(27-127)): 0.0933 s⁻¹
- koff (Spy_(27-124)): 0.089 s⁻¹
- koff (Spy_(29-130)): 0.0937 s⁻¹
- koff (Spy_(29-127)): 0.095 s⁻¹
- koff (Spy_(29-124)): 0.089 s⁻¹
- koff (Spy_(21-127)): 0.512 s⁻¹
- koff (Spy_(24-124)): 0.423 s⁻¹
B1: Im7 H40W L53A I54A (natural protein)
chain: MELKNSISDYTEAEFVQLLKEIEKENVAATDDVLDVLLEWFVKITEHPDGTDAAYYPSDNRDDSPEGIVKEIKEWRAANGKPGFKQG
modifications: biotin (EZ-link NHS-biotin, 1:1 molar ratio of biotin to protein)
notes: Im7 (colicin E7 immunity protein) with H40W L53A I54A; Spy was made with an N-terminal His6-SUMO tag that was cleaved; also called Im7AAW; partially folded client; source: purified by a similar procedure to Spy
